Source: PMC6540902, “A simple, robust, universal assay for real-time enzyme monitoring by signalling changes in nucleoside phosphate anion concentration using a europium(III)-based anion receptor” (Chemical Science, 2019)

Substrate: CC(C)C[C@H](NC(=O)[C@H](CO)NC(=O)[C@H](C)NC(=O)[C@H](CCCNC(=N)N)NC(=O)[C@H](CCCNC(=N)N)NC(=O)[C@@H](N)CC(C)C)C(=O)NCC(=O)O
Experiment: Michaelis-Menten substrate titration (Km) by real-time Eu(III) luminescence
Type: biochemical, Homo sapiens
Conditions: ATP, Mg2+

B1: Aurora A kinase (AurA) (Homo sapiens) (protein)
chain: MDRSKENCISGPVKATAPVGGPKRVLVTQQFPCQNPLPVNSGQAQRVLCPSNSSQRIPLQAQKLVSSHKPVQNQKQKQLQATSVPHPVSRPLNNTQKSKQPLPSAPENNPEEELASKQKNEESKKRQWALEDFEIGRPLGKGKFGNVYLAREKQSKFILALKVLFKAQLEKAGVEHQLRREVEIQSHLRHPNILRLYGYFHDATRVYLILEYAPLGTVYRELQKLSKFDEQRTATYITELANALSYCHSKRVIHRDIKPENLLLGSAGELKIADFGWSVHAPSSRRTTLCGTLDYLPPEMIEGRMHDEKVDLWSLGVLCYEFLVGKPPFEANTYQETYKRISRVEFTFPDFVTEGARDLISRLLKHNPSQRPMLREVLEHPWITANSSKPSNCQNKESASKQS
Km: 176 ± 29 µM
